Data: patent US20170022287A1 (Chugai, published 2017)

Key:
CRD2-3 [1] = target: T1, CRD2-3; experiment: ELISA, coated CD137-Fc protein 2 µg/mL, antibody 10 or 5 µg/mL, absorbance 620 nm; Non (uncoated well) 0.3465
T1 construct: also called fragmented human CD137-Fc fusion protein CRD2-3
Method: (§1) Fragmented human CD137-Fc fusion proteins were diluted to 2 μg/mL in an aqueous sodium carbonate solution adjusted to pH9.6. Fifty μL of a diluted fragmented human CD137-Fc fusion protein was added individually to each well of a Nunc MaxiSorp flat-bottom 96 well plate (Nunc). This was allowed to stand at 4° C. overnight or longer, and then the plate was allowed to stand at room temperature for one hour so that the plate has the same temperature as the room temperature. The solution containing the fragmented human CD137-Fc fusion protein was removed by tilting, and each well was washed three times with 300 μL of Wash buffer (TBS containing 0.1% Tween20, TaKaRa). Next, 150 μL of blocking buffer (TBS containing 2% BSA) was added to each well, and this was allowed to stand for one hour or more. The blocking buffer was removed by tilting, and each well was washed three times with Wash Buffer in a similar manner to an earlier step. Then, 50 μL of an antibody solution prepared in advance by dilution with TBS to 10 μg/mL or 5 μg/mL was added to each well. This was subjected to a speed of 600 rpm or so for one hour at room temperature to bind the antibody to the immobilized antigen. […] 100 μL of a secondary antibody solution produced by 1000-fold dilution with TBS containing 0.1% Tween20 was added to each well. For the secondary antibody, ANTIBODY ALKALINE PHOSPHATASE CONJUGATE HUMAN IMMUNOGLOBULIN ABSORBED Goat Anti-Human Kappa Alkaline Phosphate from BIOSOURCE was used in the case of antibodies carrying a Kappa chain, and Human Lambda Light Chain Antibody; Goat anti-Human Lambda Light Chain Antibody Alkaline Phosphatase Conjugated from BETHYL LABORATORIES INC. was used in the case of antibodies carrying a Lambda chain. […] Color development was performed using the BluePhos Microwell kit from KPL. After the chromogenic reaction was stopped using the AP stop solution from KPL, the absorbance was measured at 620 nm on an absorptiometer.

CRD1-3 [2] = target: T2, CRD1-3; experiment: as above
T2 construct: also called fragmented human CD137-Fc fusion protein CRD1-3
T2 sequence (chain, as listed by the source limits assumed): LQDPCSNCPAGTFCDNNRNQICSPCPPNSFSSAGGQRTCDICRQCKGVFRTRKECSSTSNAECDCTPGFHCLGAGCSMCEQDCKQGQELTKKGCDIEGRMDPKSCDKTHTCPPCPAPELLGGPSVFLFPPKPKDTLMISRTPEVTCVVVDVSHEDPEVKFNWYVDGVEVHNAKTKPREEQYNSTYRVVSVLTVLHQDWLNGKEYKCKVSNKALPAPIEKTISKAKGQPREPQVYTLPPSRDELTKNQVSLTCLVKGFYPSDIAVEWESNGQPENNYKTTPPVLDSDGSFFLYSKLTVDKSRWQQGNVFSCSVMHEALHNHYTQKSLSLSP
Method: as §1

CRD3-4 [3] = target: T3, CRD3-4; experiment: as above
T3 construct: also called fragmented human CD137-Fc fusion protein CRD3-4
T3 sequence (chain, as listed by the source limits assumed): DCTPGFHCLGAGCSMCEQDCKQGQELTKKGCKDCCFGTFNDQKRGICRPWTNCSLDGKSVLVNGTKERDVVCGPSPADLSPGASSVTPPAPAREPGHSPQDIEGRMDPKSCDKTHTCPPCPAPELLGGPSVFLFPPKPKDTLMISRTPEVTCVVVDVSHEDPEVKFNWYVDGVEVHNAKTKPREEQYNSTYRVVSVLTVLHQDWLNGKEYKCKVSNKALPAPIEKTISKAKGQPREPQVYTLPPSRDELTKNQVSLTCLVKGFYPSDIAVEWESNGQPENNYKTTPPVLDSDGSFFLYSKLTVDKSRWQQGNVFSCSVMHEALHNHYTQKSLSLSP
Method: as §1

CRD1-2 [4] = target: T4, CRD1-2; experiment: as above
T4 construct: also called fragmented human CD137-Fc fusion protein CRD1-2
T4 sequence (chain, as listed by the source limits assumed): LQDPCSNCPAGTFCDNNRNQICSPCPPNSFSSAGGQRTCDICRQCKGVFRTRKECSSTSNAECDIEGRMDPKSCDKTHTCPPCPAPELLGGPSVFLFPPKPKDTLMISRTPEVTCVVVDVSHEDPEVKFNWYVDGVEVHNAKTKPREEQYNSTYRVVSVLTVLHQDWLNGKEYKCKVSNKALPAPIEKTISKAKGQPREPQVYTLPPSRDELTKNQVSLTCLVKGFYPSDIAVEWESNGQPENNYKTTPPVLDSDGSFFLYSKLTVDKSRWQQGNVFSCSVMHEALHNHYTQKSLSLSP
Method: as §1

[5] = target: full-length human CD137-Fc fusion protein (human); experiment: as above
full-length human CD137-Fc fusion protein (human), sequence (chain, as listed by the source limits assumed): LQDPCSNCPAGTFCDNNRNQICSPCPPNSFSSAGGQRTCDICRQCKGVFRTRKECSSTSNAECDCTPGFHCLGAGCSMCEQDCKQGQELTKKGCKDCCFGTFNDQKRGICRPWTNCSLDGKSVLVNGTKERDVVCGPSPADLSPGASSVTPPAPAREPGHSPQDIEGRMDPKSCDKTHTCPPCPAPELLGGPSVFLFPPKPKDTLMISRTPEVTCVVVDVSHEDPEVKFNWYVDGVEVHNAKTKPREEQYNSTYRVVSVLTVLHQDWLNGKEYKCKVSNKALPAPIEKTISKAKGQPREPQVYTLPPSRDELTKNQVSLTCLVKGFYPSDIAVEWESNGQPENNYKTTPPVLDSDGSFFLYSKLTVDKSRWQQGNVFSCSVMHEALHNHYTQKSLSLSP
Method: as §1

CRD1 [6] = target: T5, CRD1; experiment: as above
T5 construct: also called fragmented human CD137-Fc fusion protein CRD1
T5 sequence (chain, as listed by the source limits assumed): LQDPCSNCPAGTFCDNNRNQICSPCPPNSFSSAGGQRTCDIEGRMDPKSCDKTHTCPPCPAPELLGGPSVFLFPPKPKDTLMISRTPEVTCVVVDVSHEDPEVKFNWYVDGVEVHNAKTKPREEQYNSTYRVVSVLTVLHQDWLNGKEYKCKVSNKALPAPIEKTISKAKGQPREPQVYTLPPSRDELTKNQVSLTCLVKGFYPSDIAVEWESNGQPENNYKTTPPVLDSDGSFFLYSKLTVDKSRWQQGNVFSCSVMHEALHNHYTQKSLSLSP
Method: as §1

CRD2-4 [7] = target: T6, CRD2-4; experiment: as above
T6 construct: also called fragmented human CD137-Fc fusion protein CRD2-4
T6 sequence (chain, as listed by the source limits assumed): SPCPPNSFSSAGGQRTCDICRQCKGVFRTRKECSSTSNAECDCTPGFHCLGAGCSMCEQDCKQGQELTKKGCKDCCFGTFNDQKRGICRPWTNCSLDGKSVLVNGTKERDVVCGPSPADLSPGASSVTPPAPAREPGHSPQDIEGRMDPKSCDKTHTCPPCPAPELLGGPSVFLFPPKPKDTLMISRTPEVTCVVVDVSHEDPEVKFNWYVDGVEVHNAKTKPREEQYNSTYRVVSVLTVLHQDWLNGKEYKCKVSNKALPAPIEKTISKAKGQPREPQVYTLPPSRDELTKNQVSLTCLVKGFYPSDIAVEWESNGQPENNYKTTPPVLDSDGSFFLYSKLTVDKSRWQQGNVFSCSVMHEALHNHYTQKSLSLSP
Method: as §1

CRD2-3 [8] = target: T1, CRD2-3; experiment: ELISA, coated CD137-Fc protein 2 µg/mL, antibody 10 or 5 µg/mL; absorbance 620 nm divided by that of the uncoated well
Method: as §1

CRD1-3 [9] = target: T2, CRD1-3; experiment: as above
Method: as §1

CRD3-4 [10] = target: T3, CRD3-4; experiment: as above
Method: as §1

CRD1-2 [11] = target: T4, CRD1-2; experiment: as above
Method: as §1

[12] = target: full-length human CD137-Fc fusion protein (human); experiment: as above
Method: as §1

CRD1 [13] = target: T5, CRD1; experiment: as above
Method: as §1

CRD2-4 [14] = target: T6, CRD2-4; experiment: as above
Method: as §1

CRD2-3 [15] = target: T1, CRD2-3; experiment: ELISA, coated CD137-Fc protein 2 µg/mL, antibody 10 or 5 µg/mL, absorbance 620 nm; Non (uncoated well) 0.202
Method: as §1

CRD1-3 [16] = target: T2, CRD1-3; experiment: as above
Method: as §1

CRD3-4 [17] = target: T3, CRD3-4; experiment: as above
Method: as §1

CRD1-2 [18] = target: T4, CRD1-2; experiment: as above
Method: as §1

CRD1 [19] = target: T5, CRD1; experiment: as above
Method: as §1

CRD2-4 [20] = target: T6, CRD2-4; experiment: as above
Method: as §1

CRD2-3 [21] = target: T1, CRD2-3; experiment: ELISA, coated CD137-Fc protein 2 µg/mL, antibody 10 or 5 µg/mL, absorbance 620 nm; Non (uncoated well) 0.065
Method: as §1

CRD3-4 [22] = target: T3, CRD3-4; experiment: as above
Method: as §1

CRD1-2 [23] = target: T4, CRD1-2; experiment: as above
Method: as §1

[24] = target: full-length human CD137-Fc fusion protein (human); experiment: as above
Method: as §1

CRD1 [25] = target: T5, CRD1; experiment: as above
Method: as §1

CRD2-4 [26] = target: T6, CRD2-4; experiment: as above
Method: as §1

T1 sequence (chain, as listed by the source limits assumed): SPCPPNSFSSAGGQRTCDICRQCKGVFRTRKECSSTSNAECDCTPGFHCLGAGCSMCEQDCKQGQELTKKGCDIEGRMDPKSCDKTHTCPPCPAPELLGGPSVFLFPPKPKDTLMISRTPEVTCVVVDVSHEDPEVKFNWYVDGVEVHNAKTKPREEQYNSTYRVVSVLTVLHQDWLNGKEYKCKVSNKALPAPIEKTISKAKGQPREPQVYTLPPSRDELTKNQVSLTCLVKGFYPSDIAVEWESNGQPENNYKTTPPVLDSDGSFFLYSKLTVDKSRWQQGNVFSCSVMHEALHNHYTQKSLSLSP

B1: R18 (antibody, V domains shown)
VH: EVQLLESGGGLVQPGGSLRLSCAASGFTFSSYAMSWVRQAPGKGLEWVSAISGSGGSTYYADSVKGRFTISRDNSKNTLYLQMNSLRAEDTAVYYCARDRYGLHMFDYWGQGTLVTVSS
VL: DIQMTQSPSSLSASVGDRVTITCRASQSISSYLNWYQQKPGKAPKLLIYAASSLQSGVPSRFSGSGSGTDFTLTISSLQPEDFATYYCLQFNSFPLTFGGGTKVEIK
notes: Synthetic library clone; Fab on phage in the phage ELISA
ELISA color development level (CRD2-3 [1]): 2.49
ELISA color development level (CRD1-3 [2]): 2.29
ELISA color development level (CRD3-4 [3]): 2.65
ELISA color development level (CRD1-2 [4]): 0.419
ELISA color development level [5]: 2.03
ELISA color development level (CRD1 [6]): 0.4
ELISA color development level (CRD2-4 [7]): 2.27
Ratio with respect to Non-Coating (CRD2-3 [8]): 7.2
Ratio with respect to Non-Coating (CRD1-3 [9]): 6.6
Ratio with respect to Non-Coating (CRD3-4 [10]): 7.7
Ratio with respect to Non-Coating (CRD1-2 [11]): 1.2
Ratio with respect to Non-Coating [12]: 5.8
Ratio with respect to Non-Coating (CRD1 [13]): 1.2
Ratio with respect to Non-Coating (CRD2-4 [14]): 6.6

B2: R2 (antibody, V domains shown)
VH: EVQLQESGPGLVKPSETLSLTCTVSGGSISSSSYYWGWIRQPPGKGLEWIGSIHYTGSTYYNPSLKSRVTISVDTSKNQFSLKLSSVTAADTAVYYCARLNPSIAARPGAFDIWGQGTMVTVSS
VL: QSVLTQPPSVSAAPGQKVTISCSGSSSNIANNFVSWFQQLPGTAPKLLIYDNNKRPSGIPDRFSGSKSGTSATLGITGLQTGDEADYYCGTWDRSLSAGVFGGGTKVTVL
notes: Naive library clone; Fab on phage in the phage ELISA
ELISA color development level (CRD2-3 [15]): 0.19
ELISA color development level (CRD1-3 [16]): 0.226
ELISA color development level (CRD3-4 [17]): 0.11
ELISA color development level (CRD1-2 [18]): 0.202
ELISA color development level (CRD1 [19]): 0.226
ELISA color development level (CRD2-4 [20]): 0.15
Ratio with respect to Non-Coating (CRD2-3 [8]): 0.9
Ratio with respect to Non-Coating (CRD1-3 [9]): 1.1
Ratio with respect to Non-Coating (CRD3-4 [10]): 0.5
Ratio with respect to Non-Coating (CRD1-2 [11]): 1
Ratio with respect to Non-Coating (CRD1 [13]): 1.1
Ratio with respect to Non-Coating (CRD2-4 [14]): 0.7

B3: R1 (antibody, V domains shown)
VH: EVQLVQSGAEVKKPGASVKVSCKASGYTFTSYYTHWVRQAPGQGLEWMGIINPSGGSTSYAQKFQGRVTMTRDTSTSTVYMELSSLRSEDTAVYYCARGAPEYSSSSDYWGQGTMVTVSS
VL: QSALTQPASVSGSPGQSITISCTGTSSDVGGYNYVSWYQQHPGKAPKLMIYDVSNRPSGVSNRFSGSKSGNTASLTISGLQAEDEADYYCSSYTSSSTRWVFGGGTKLTVL
notes: as for B2
ELISA color development level (CRD2-3 [21]): 0.117
ELISA color development level (CRD3-4 [22]): 0.0875
ELISA color development level (CRD1-2 [23]): 0.865
ELISA color development level [24]: 1.79
ELISA color development level (CRD1 [25]): 0.123
ELISA color development level (CRD2-4 [26]): 0.0935
Ratio with respect to Non-Coating (CRD2-3 [8]): 1.8
Ratio with respect to Non-Coating (CRD3-4 [10]): 1.3
Ratio with respect to Non-Coating (CRD1-2 [11]): 13.3
Ratio with respect to Non-Coating [12]: 27.6
Ratio with respect to Non-Coating (CRD1 [13]): 1.9
Ratio with respect to Non-Coating (CRD2-4 [14]): 1.4
